Patent US20230414780A1 (VECT HORUS, published 2023)
Positions count from the first letter of the chain named.

B1: B8^V1 (VHH)
VHH: EVQLVESGGGVVQPGGSLRLSCAADGEIFSINFMRWYRQAPGKQREWVAGFTRDGSTNYPDSAKGRFTISRDNAKNTVYLQIDSLKPEDTAVYYCYMLDTWGQGTQVTVSS
B2: VHH D (H3) (VHH)
VHH: EVQLVESGGGEVQPGGSLKLSCVASGTDFSINFVRWYRQRPGKQREWVAGFTANGDTNYPDSMKGRFTISRDNAKNTVYLQINSLKSEDTAVYYCYMLDNWGQGTQVTVSS
B3: C5^V13h20 (VHH)
VHH: EVQLVESGGGVVQPGGSLRLSCAASGTDFSINFIRWYRQAPGKGLEFVAGFSATGNTNYADSVKGRFTISRDNAKNAVYLQMNSLRPEDTAVYYCYMLDKWGQGTQVTVSS
B4: C5^h22 (VHH)
VHH: B3 VHH with L45R, S52T, A77T, V78L
B5: VHH A8 (C5^V8) (VHH)
VHH: EVQLVESGGGVVQPGGSLKLSCVASGTDFSINFIRWYRQAPGKQREFVAGFTATGNTNYADSMKGRFTISRDNTKNAVYLQIDSLKPEDTAVYYCYMLAKWGQGTQVTVSS
B6: C5^h20 (VHH)
VHH: B3 VHH with S52T
B7: VHH A16 (C5^V16) (VHH)
VHH: B5 VHH with M97I, A99D
B8: VHH A18 (C5^V18) (VHH)
VHH: B5 VHH with L98V, A99D
B9: C5^h9 (VHH)
VHH: B3 VHH with S52T, A77T, V78L
B10: C5^h25 (VHH)
VHH: B3 VHH with Y37V, S52T, A77T, V78L, M82I, N83D
B11: B4a (VHH)
VHH: EVQLVESGGGLVQAGGSLRLSCTASGRTVSNYRMGWFRQTPGKEREFVAAIAWAGGSLTYADSVKGRFTISRDNAKNTVYLQMNSLEPTDTAVYYCKGSRIFPTRDYWGKGTQVTVSS

molecular target: T1, mouse TfR ectodomain fused to a mouse IgG1 Fc fragment (mouse, UniProt Q62351 89-763); assay: SPR, kinetic
T1 construct: extracellular domain; not shown: mouse IgG1 Fc fragment
T1 sequence (Q62351 89-763): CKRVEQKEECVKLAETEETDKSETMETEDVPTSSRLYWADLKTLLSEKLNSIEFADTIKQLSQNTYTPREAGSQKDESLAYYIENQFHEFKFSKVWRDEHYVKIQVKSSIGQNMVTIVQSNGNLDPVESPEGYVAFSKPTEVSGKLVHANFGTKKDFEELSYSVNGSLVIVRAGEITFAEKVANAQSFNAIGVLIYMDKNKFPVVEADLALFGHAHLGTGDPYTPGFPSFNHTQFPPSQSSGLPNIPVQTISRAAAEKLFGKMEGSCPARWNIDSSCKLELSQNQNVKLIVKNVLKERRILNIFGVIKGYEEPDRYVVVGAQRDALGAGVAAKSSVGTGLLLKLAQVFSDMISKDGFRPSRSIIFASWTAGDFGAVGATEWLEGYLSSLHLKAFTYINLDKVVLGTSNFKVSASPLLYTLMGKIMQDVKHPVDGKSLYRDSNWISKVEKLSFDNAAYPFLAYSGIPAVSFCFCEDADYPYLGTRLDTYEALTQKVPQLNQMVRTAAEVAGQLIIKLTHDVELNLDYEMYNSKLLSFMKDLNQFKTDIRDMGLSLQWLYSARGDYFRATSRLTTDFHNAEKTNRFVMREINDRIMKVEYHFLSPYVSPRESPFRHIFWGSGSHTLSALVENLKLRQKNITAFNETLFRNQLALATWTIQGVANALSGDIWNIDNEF
Experimental: (§1) Binding properties of some VHHs were also evaluated using Surface Plasmon Resonance (SPR) experiments. The human, mouse and rhesus monkey TfR (having respectively GeneBank number NM_003234.2, NM_011638, NC_041755.1) ectodomains were fused to the N-terminal end of a mouse IgG1 Fc fragment and the recombinant proteins were produced and purified in-house. Interaction of VHHs with the receptors was tested using a Biacore T200 (GE Healthcare). Receptors were immobilized on an HC 1500M or a CM5 sensor chip (Xantec) either directly or on an anti-mouse IgG previously immobilized. VHHs were injected over flowcell by using the single-cycle kinetic or the multiple-cycle kinetic methods.

Kd [nM]	koff [s⁻¹]	kon [M⁻¹ s⁻¹]	Binder
1960	0.0125	6510	B1
15.6	0.00909	581000	B2

molecular target: T2, human TfR ectodomain fused to a mouse IgG1 Fc fragment (human, UniProt P02786 89-760); assay: SPR, kinetic
T2 construct: extracellular domain; ectodomain fused to the N-terminal end of the Fc, made in-house; not shown: mouse IgG1 Fc fragment
T2 sequence (P02786 89-760): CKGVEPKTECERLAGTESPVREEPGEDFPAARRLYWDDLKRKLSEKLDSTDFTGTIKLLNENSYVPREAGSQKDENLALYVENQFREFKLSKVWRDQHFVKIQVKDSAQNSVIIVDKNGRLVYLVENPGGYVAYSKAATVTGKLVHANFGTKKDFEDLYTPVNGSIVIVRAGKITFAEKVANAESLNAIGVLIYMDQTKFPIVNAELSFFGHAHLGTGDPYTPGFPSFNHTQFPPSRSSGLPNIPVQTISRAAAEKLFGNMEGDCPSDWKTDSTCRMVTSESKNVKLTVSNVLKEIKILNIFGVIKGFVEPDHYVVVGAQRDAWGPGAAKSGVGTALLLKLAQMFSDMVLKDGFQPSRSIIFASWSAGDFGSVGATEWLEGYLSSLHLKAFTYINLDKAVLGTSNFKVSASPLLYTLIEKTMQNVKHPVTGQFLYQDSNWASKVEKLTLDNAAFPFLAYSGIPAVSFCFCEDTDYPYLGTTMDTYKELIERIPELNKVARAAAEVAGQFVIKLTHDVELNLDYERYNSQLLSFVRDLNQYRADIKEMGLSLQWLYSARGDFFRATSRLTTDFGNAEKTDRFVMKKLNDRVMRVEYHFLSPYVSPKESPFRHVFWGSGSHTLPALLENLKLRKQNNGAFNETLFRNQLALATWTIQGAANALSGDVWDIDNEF
Experimental: as §1

Kd [nM]	koff [s⁻¹]	kon [M⁻¹ s⁻¹]	Binder
6.04	0.0011	183000	B1
4.55	0.00357	786000	B3
8.96	0.00906	1.5e+06	B4
94.8	0.0558	504000	B5
0.985	0.00105	866000	B6
14.5	0.00577	459000	B7
0.0333	3.3e-05	1.01e+06	B2
43.3	0.021	487000	B8
10.6	0.00582	549000	B9

molecular target: T3, mouse transferrin receptor (mTfR) fused to EGFP, on CHO cells (mouse, UniProt Q62351 1-763); assay: apparent Kd, flow cytometry, CHO cells
T3 construct: whole, on cells; also called mouse TfR; CHO-mTfR-EGFP; not shown: EGFP
T3 sequence (Q62351 whole entry, the tested form may be a part): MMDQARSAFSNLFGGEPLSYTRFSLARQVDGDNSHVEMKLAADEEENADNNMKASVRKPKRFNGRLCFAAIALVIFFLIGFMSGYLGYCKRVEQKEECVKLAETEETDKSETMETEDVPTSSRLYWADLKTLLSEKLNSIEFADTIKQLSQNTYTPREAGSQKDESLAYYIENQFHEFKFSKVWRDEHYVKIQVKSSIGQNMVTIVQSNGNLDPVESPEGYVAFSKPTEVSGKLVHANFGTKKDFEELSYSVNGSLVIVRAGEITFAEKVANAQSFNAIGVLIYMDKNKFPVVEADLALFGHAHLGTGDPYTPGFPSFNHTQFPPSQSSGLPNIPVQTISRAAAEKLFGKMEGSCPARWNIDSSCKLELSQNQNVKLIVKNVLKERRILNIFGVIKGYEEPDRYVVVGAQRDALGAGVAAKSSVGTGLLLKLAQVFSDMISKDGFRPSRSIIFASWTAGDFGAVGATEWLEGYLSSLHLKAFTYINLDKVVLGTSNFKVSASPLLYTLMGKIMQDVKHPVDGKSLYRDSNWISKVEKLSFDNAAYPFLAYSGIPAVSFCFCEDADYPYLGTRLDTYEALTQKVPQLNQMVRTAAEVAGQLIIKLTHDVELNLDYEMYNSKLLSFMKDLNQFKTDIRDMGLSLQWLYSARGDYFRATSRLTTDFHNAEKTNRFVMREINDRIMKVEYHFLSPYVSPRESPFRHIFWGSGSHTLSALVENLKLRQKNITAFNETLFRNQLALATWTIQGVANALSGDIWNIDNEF
Experimental: (§2) The binding properties of VHHs with affinity for the TfR from different species (i.e., human (h), mouse (m) and rhesus monkey (rh)) were tested using flow cytometry, and apparent affinities (Kd app) were determined. All experiments were performed in 96 well plates using 2×10⁵ cells/well, at 4° C. with shaking. CHO cell lines expressing the hTfR, mTfR or rhTfR fused to EGFP were saturated with PBS/BSA 2% solution during 30 min to avoid nonspecific binding, followed by incubation with purified VHHs at increasing concentrations for 1 hr. After one wash in PBS/BSA 2%, cells were incubated for 1 hr with an anti-6His tag antibody (mouse), washed twice with PBS/BSA 2%, and incubated for 1 hr with an Alexa647-conjugated anti-mouse secondary antibody. After two last washes in PBS/BSA 2%, cells were fixed by incubation for 15 min with PBS/PFA 2%, washed once with PBS and finally resuspended in PBS. Fluorescence levels were assessed using an Attune NxT flow cytometer (Thermo Fisher Scientific). Experimental data were fitted with GraphPad Prism® software using a nonlinear fit to determine the apparent Kd constants. […] Table 5 hereafter summarizes apparent Kd obtained for the tested VHHs.

Kd [nM]	Binder
313	B1
246	B3
602	B4
755	B10
427	B5
22	B6
131	B7
56	B2
416	B8
431	B9
409	B11

molecular target: T4, human transferrin receptor (hTfR) fused to EGFP, on CHO cells (human, UniProt P02786 1-760); assay: apparent Kd, flow cytometry, CHO cells
T4 construct: whole, on cells; also called human TfR; CHO-hTfR-EGFP; not shown: EGFP from pEGFP-C1 vector, fused to the N-terminal (intracellular) end of hTfR
T4 sequence (P02786 whole entry, the tested form may be a part): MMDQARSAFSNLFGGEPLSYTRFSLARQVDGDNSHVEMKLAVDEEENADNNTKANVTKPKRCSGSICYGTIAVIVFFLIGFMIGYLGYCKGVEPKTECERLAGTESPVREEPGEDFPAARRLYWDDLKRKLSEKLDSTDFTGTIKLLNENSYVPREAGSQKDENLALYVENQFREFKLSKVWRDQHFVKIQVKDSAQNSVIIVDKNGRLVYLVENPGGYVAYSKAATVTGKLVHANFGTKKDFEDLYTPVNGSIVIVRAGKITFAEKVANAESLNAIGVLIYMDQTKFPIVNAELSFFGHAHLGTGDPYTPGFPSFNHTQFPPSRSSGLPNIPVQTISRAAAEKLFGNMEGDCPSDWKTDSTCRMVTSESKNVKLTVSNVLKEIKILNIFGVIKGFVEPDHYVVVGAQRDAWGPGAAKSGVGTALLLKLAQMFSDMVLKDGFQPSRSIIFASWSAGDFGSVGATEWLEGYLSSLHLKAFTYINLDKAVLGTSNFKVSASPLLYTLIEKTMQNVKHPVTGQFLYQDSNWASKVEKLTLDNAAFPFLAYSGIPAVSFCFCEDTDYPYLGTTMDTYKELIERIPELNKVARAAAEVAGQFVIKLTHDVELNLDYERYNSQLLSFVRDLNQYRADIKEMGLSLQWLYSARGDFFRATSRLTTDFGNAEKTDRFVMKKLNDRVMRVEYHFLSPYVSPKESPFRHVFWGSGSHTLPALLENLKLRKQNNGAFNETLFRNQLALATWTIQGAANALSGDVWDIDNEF
Experimental: as §2

Kd [nM]	Binder
192	B1
3.8	B3
4.9	B4
777	B10
23	B5
4.1	B6
4.7	B7
1.9	B2
12	B8
6.1	B9
692	B11

molecular target: T5, rhesus monkey transferrin receptor (rhTfR) fused to EGFP, on CHO cells (rhesus monkey); assay: apparent Kd, flow cytometry, CHO cells
T5 construct: whole, on cells; also called rhesus monkey TfR
Experimental: as §2

Kd [nM]	Binder
138	B1
549	B3
755	B4
494	B5
40	B6
425	B7
1.5	B2
481	B8
493	B9
479	B11

molecular target: T2, human TfR ectodomain fused to a mouse …; assay: SPR, at equilibrium
Experimental: as §1

Kd [nM]	Binder
1550	B10
84.3	B5
37.8	B8
